In PMC7652416, “Structural basis of ClpXP recognition and unfolding of ssrA-tagged substrates” (eLife, 2020):

Molecular target: the molecule itself
Assay: cryo-EM structure; single-chain ClpX^∆N (4 µM), ClpP (1.8 µM), ATPγS (2.5 mM) in 20 mM HEPES pH 7.5, 100 mM KCl, 25 mM MgCl2, 5 min at 25°C; equal volume of GFP-G3YG9SENYALAA (20 µM) and ATP (2.5 mM) added; vitrified within 15 s of final mixing

B1: E. coli ClpP (enzyme)
chain: not shown
notes: E. coli (strain K12) ClpP, UniProtKB P0A6G7; Double-ring tetradecamer of two heptameric rings; also called ClpP14; ClpP tetradecamer; source: recombinant (plasmid pT7 ClpP), purified as described (Kim et al., 2000; Bell et al., 2019); copies: 14
Question: B1 was tested. Which “stoichiometry N” value did it give?
Answer: 14
